Values belong to the substance of their own block, whether it stands above or below them.
Experiments:
[1] = molecular target: recombinant UBE3A protein (Homo sapiens (Human)) (UniProt Q05086); test: Simoa; capture GTX; SBG 75 pm; UBE3A 0.00128 ng/ml
[2] = molecular target: recombinant UBE3A protein (Homo sapiens (Human)) (UniProt Q05086); test: Simoa; capture GTX; 3E5 0.2 ug/ml; UBE3A 0.160 ng/ml
[3] = molecular target: recombinant UBE3A protein (Homo sapiens (Human)) (UniProt Q05086); test: Simoa head-to-head, Table 11; capture GTX; UBE3A 0.032 ng/ml
[4] = molecular target: recombinant UBE3A protein (Homo sapiens (Human)) (UniProt Q05086); test: Simoa; capture GTX + helper beads; 3E5 0.2 ug/ml; UBE3A 20.0 ng/ml
[5] = molecular target: recombinant UBE3A protein (Homo sapiens (Human)) (UniProt Q05086); test: 3-step Simoa, 120 min bead step; capture GTX; UBE3A 20.0 ng/ml
[6] = molecular target: recombinant UBE3A protein (Homo sapiens (Human)) (UniProt Q05086); test: Simoa head-to-head, Table 11; capture MS 2F6; UBE3A 0.032 ng/ml
[7] = molecular target: recombinant UBE3A protein (Homo sapiens (Human)) (UniProt Q05086); test: Simoa; capture GTX, no helper beads; 3E5 0.1 ug/ml; UBE3A 0.00640 ng/ml
[8] = molecular target: recombinant UBE3A protein (Homo sapiens (Human)) (UniProt Q05086); test: Simoa; capture GTX; SBG 100 pm; UBE3A 0.00640 ng/ml
[9] = molecular target: recombinant UBE3A protein (Homo sapiens (Human)) (UniProt Q05086); test: Simoa; capture GTX, no helper beads; 3E5 0.2 ug/ml; UBE3A 0.00128 ng/ml
[10] = molecular target: recombinant UBE3A protein (Homo sapiens (Human)) (UniProt Q05086); test: Simoa; capture GTX, no helper beads; 3E5 0.1 ug/ml; UBE3A 4.00 ng/ml
[11] = molecular target: recombinant UBE3A protein (Homo sapiens (Human)) (UniProt Q05086); test: Simoa; capture GTX + helper beads; 3E5 0.2 ug/ml; UBE3A 0.00128 ng/ml
[12] = molecular target: recombinant UBE3A protein (Homo sapiens (Human)) (UniProt Q05086); test: Simoa; capture GTX, no helper beads; 3E5 0.2 ug/ml; UBE3A 0.160 ng/ml
[13] = molecular target: recombinant UBE3A protein (Homo sapiens (Human)) (UniProt Q05086); test: Simoa; capture GTX; 3E5 0.2 ug/ml; UBE3A 0.00640 ng/ml
[14] = molecular target: recombinant UBE3A protein (Homo sapiens (Human)) (UniProt Q05086); test: Simoa; capture GTX, no helper beads; 3E5 0.4 ug/ml; UBE3A 4.00 ng/ml
[15] = molecular target: recombinant UBE3A protein (Homo sapiens (Human)) (UniProt Q05086); test: Simoa; capture GTX; SBG 75 pm; UBE3A 0.800 ng/ml
[16] = molecular target: recombinant UBE3A protein (Homo sapiens (Human)) (UniProt Q05086); test: 2-step Simoa; capture GTX; UBE3A 0.488 ng/ml
[17] = molecular target: recombinant UBE3A protein (Homo sapiens (Human)) (UniProt Q05086); test: 3-step Simoa; capture GTX; UBE3A 31.3 ng/ml
[18] = molecular target: recombinant UBE3A protein (Homo sapiens (Human)) (UniProt Q05086); test: 3-step Simoa; capture GTX; UBE3A 500 ng/ml
[19] = molecular target: recombinant UBE3A protein (Homo sapiens (Human)) (UniProt Q05086); test: 3-step Simoa; capture GTX; UBE3A 7.81 ng/ml
[20] = molecular target: recombinant UBE3A protein (Homo sapiens (Human)) (UniProt Q05086); test: 3-step Simoa; capture GTX; UBE3A 0.122 ng/ml
[21] = molecular target: recombinant UBE3A protein (Homo sapiens (Human)) (UniProt Q05086); test: 2-step Simoa; capture GTX; UBE3A 7.81 ng/ml

Chain of UniProt Q05086 (Q05086 whole entry): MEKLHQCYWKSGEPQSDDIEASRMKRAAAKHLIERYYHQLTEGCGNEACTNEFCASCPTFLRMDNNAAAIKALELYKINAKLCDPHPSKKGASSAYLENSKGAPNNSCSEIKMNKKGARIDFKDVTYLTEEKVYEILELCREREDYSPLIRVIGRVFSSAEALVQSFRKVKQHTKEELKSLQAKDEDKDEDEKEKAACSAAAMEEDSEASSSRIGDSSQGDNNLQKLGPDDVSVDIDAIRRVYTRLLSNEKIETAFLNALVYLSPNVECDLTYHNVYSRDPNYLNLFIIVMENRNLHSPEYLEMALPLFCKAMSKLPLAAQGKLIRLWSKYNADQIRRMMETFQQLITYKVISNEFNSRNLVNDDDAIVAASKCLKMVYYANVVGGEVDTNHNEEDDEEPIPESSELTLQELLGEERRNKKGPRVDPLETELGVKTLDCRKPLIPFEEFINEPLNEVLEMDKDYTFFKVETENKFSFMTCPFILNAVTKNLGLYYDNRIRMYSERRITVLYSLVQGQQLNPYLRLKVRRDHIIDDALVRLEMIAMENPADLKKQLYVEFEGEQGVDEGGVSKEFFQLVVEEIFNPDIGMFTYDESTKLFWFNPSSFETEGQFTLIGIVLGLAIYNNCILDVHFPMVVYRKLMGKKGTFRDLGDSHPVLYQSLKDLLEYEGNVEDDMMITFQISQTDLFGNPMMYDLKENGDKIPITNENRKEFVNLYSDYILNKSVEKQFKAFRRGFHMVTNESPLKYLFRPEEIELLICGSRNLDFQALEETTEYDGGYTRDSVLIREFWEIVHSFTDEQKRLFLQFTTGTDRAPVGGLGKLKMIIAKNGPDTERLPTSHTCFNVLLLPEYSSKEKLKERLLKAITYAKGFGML

- AEB1 [1]: 0.0046
- AEB2 [1]: 0.0045
- AEB3 [1]: 0.0047
- Average AEB [1]: 0.0046
- Signal to Background [1]: 1.06
- AEB1 [2]: 0.125
- AEB2 [2]: 0.123
- AEB3 [2]: 0.121
- Average AEB [2]: 0.123
- Signal to Background [2]: 3.14
- AEB1 [3]: 0.0127
- AEB2 [3]: 0.0142
- Ave AEB [3]: 0.0135
- Signal to Background [3]: 1.65
- AEB1 [4]: 5.63
- AEB2 [4]: 5.39
- Average AEB [4]: 5.51
- Signal to Background [4]: 570
- AEB1 [5]: 2.8
- AEB2 [5]: 2.88
- Ave AEB [5]: 2.84
- Signal to Background [5]: 1660
- AEB1 [6]: 0.0032
- AEB2 [6]: 0.0043
- Ave AEB [6]: 0.0037
- Signal to Background [6]: 0.986
- AEB1 [7]: 0.0087
- AEB2 [7]: 0.0092
- Average AEB [7]: 0.0089
- Signal to Background [7]: 1.56
- AEB1 [8]: 0.0098
- AEB2 [8]: 0.0098
- AEB3 [8]: 0.0111
- Average AEB [8]: 0.0103
- Signal to Background [8]: 1.22
- AEB1 [9]: 0.0099
- AEB2 [9]: 0.0139
- Average AEB [9]: 0.0119
- Signal to Background [9]: 1.23
- AEB1 [10]: 0.607
- AEB2 [10]: 0.603
- Average AEB [10]: 0.605
- Signal to Background [10]: 106
- AEB1 [11]: 0.0127
- AEB2 [11]: 0.0115
- Average AEB [11]: 0.0121
- Signal to Background [11]: 1.25
- AEB1 [12]: 0.0675
- AEB2 [12]: 0.0686
- Average AEB [12]: 0.068
- Signal to Background [12]: 7.03
- AEB1 [13]: 0.0421
- AEB2 [13]: 0.0466
- AEB3 [13]: 0.0433
- Average AEB [13]: 0.044
- Signal to Background [13]: 1.12
- AEB1 [14]: 1.1
- AEB2 [14]: 1.11
- Average AEB [14]: 1.11
- Signal to Background [14]: 56.7
- AEB1 [15]: 0.078
- AEB2 [15]: 0.115
- AEB3 [15]: 0.126
- Average AEB [15]: 0.106
- Signal to Background [15]: 24.3
Substance: anti-UBE3A antibody 3E5 (SAB1404508-100 ug, Millipore-Sigma)

- AEB1 [16]: 0.0073
- AEB2 [16]: 0.0069
- Ave AEB [16]: 0.0071
- Signal to Background [16]: 2.16
- AEB1 [17]: 0.0425
- AEB2 [17]: 0.046
- Ave AEB [17]: 0.0443
- Signal to Background [17]: 20.3
- AEB1 [18]: 0.229
- AEB2 [18]: 0.218
- Ave AEB [18]: 0.224
- Signal to Background [18]: 102
- AEB1 [19]: 0.0143
- AEB2 [19]: 0.0128
- Ave AEB [19]: 0.0135
- Signal to Background [19]: 6.2
- AEB1 [20]: 0.0021
- AEB2 [20]: 0.002
- Ave AEB [20]: 0.002
- Signal to Background [20]: 0.624
- AEB1 [21]: 0.058
- AEB2 [21]: 0.0481
- Ave AEB [21]: 0.053
- Signal to Background [21]: 16.2
Substance: NB500-240 (Novus) (antibody)

Reference: patent US12467929
